Data published in the supplement of paper PMC7125110.
± gives the standard error. Fewer inactive variants are shown than the library holds.

B1: glmS ribozyme (parent)
chain: AUAAAAGCGCCAGAACUACAGAAAUGUAGUUGACGAGGAGGAGGUUUAUCGAAUUUUCGGCGGAUGCCUCCAAA

What was measured:
Settings in all cases: with glucosamine-6-phosphate
glucosamine-6-phosphate [1] = variants of: B1; test: self-cleavage kobs at 40 uM GlcN6P; higher = faster cleavage; RNA array
Procedure, shortened: (§1)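 E. coli RNA polymerase transcribed barcoded ribozyme variants in situ on sequenced MiSeq chips, which were tracked via a hybridised Cy3 probe at 37 °C. Tiles were imaged over ~14 h after glucosamine-6-phosphate (40 μM to 10 mM) in HEPES/KCl/Mg(OAc)2 buffer was flowed in. Normalised per-tile medians were fit to one- or two-exponential decays for kobs, and kcat and KM came from weighted Michaelis–Menten fits.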

glucosamine-6-phosphate [2] = variants of: B1; test: self-cleavage kobs at 640 uM GlcN6P; higher = faster cleavage; RNA array
Procedure, shortened: as §1

glucosamine-6-phosphate [3] = variants of: B1; test: self-cleavage kobs at 10000 uM GlcN6P; higher = faster cleavage; RNA array
Procedure, shortened: as §1

glucosamine-6-phosphate [4] = variants of: B1; test: self-cleavage kobs at 160 uM GlcN6P; higher = faster cleavage; RNA array
Procedure, shortened: as §1

glucosamine-6-phosphate [5] = variants of: B1; test: self-cleavage kobs at 2500 uM GlcN6P; higher = faster cleavage; RNA array
Procedure, shortened: as §1

Variant	self-cleavage kobs at 40 uM GlcN6P (glucosamine-6-phosphate [1])	self-cleavage kobs at 640 uM GlcN6P (glucosamine-6-phosphate [2])	self-cleavage kobs at 10000 uM GlcN6P (glucosamine-6-phosphate [3])	self-cleavage kobs at 160 uM GlcN6P (glucosamine-6-phosphate [4])	self-cleavage kobs at 2500 uM GlcN6P (glucosamine-6-phosphate [5])
C8U U55A C58A	< 1e-05 s⁻¹	< 1e-05 s⁻¹	< 1e-05 s⁻¹	–	–
C8A C10U	–	< 1e-05 s⁻¹	–	< 1e-05 s⁻¹	–
U30A A39C U55C	–	0.00025 ± 4.5e-05 s⁻¹	–	4.87e-05 ± 1.3e-05 s⁻¹	0.000864 ± 0.00021 s⁻¹
G60C G63A	–	< 1e-05 s⁻¹	< 1e-05 s⁻¹	< 1e-05 s⁻¹	< 1e-05 s⁻¹
A36U A64G C68G	–	–	–	7.51e-05 ± 3e-05 s⁻¹	–
A33G A42U G59U	–	–	–	< 1e-05 s⁻¹	–
G37A A39U U54C	–	0.00016 ± 1.9e-05 s⁻¹	–	8.28e-05 ± 3.4e-05 s⁻¹	0.000423 ± 6.7e-05 s⁻¹
A36G U55C C67U	< 1e-05 s⁻¹	< 1e-05 s⁻¹	–	–	< 1e-05 s⁻¹
A14G G40U C58G G60A	< 1e-05 s⁻¹	–	–	–	< 1e-05 s⁻¹
C10U U45G G51U A64U	< 1e-05 s⁻¹	–	< 1e-05 s⁻¹	–	–
C34A A64C C68U	–	< 1e-05 s⁻¹	–	< 1e-05 s⁻¹	< 1e-05 s⁻¹
C8G G13C U30G C68G C70G	–	–	–	0.000998 ± 0.00044 s⁻¹	–
G7C A36G A39G C67U	–	< 1e-05 s⁻¹	–	< 1e-05 s⁻¹	< 1e-05 s⁻¹
A52U G59A	< 1e-05 s⁻¹	< 1e-05 s⁻¹	< 1e-05 s⁻¹	< 1e-05 s⁻¹	< 1e-05 s⁻¹
G41A G43C G62U	< 1e-05 s⁻¹	–	< 1e-05 s⁻¹	–	–
G32C C34A C67G C70A	–	–	–	< 1e-05 s⁻¹	–
C16G A52C	–	–	–	< 1e-05 s⁻¹	< 1e-05 s⁻¹
U31C G62U G66C	–	–	–	< 1e-05 s⁻¹	–
G32A A53C C71U	–	7.17e-05 ± 2.3e-05 s⁻¹	–	3.67e-05 ± 1.6e-05 s⁻¹	0.000197 ± 4.7e-05 s⁻¹
C11U G13U U57C G62C C67A	< 1e-05 s⁻¹	–	–	–	–
C16G A42G A53G C67G	–	0.000268 ± 5.9e-05 s⁻¹	–	0.000151 ± 3.4e-05 s⁻¹	0.000323 ± 8.1e-05 s⁻¹
A42U U47C A52C	–	–	–	< 1e-05 s⁻¹	< 1e-05 s⁻¹
G38A G41A C71A	–	–	–	< 1e-05 s⁻¹	< 1e-05 s⁻¹
G38C G62U	–	–	< 1e-05 s⁻¹	< 1e-05 s⁻¹	< 1e-05 s⁻¹
G13A C50G U55G U57G G62U	8.98e-05 ± 2.1e-05 s⁻¹	–	5.32e-05 ± 1.5e-05 s⁻¹	–	–
G41A U57G	< 1e-05 s⁻¹	–	< 1e-05 s⁻¹	–	–
C11A G13U U47G A52C A53C	–	–	–	< 1e-05 s⁻¹	–

Variant	self-cleavage kobs at 40 uM GlcN6P (glucosamine-6-phosphate [1])	self-cleavage kobs at 640 uM GlcN6P (glucosamine-6-phosphate [2])	self-cleavage kobs at 10000 uM GlcN6P (glucosamine-6-phosphate [3])	self-cleavage kobs at 160 uM GlcN6P (glucosamine-6-phosphate [4])	self-cleavage kobs at 2500 uM GlcN6P (glucosamine-6-phosphate [5])
C8A G13U G35U C68G	–	–	–	0.000168 ± 3.8e-05 s⁻¹	–
C34U G63A G66U	–	< 1e-05 s⁻¹	–	< 1e-05 s⁻¹	–
G7C U55A A64U	–	< 1e-05 s⁻¹	–	< 1e-05 s⁻¹	< 1e-05 s⁻¹
A6C C61G	< 1e-05 s⁻¹	< 1e-05 s⁻¹	< 1e-05 s⁻¹	–	–
A6G A33G G60C	–	< 1e-05 s⁻¹	–	< 1e-05 s⁻¹	–
U31G U49G C50G	< 1e-05 s⁻¹	–	–	–	–
C16U U65A U69A	–	0.000105 ± 2.4e-05 s⁻¹	2.63e-05 ± 1.2e-05 s⁻¹	3.44e-05 ± 1.7e-05 s⁻¹	4.97e-05 ± 1.7e-05 s⁻¹
G7U G41U U46A G62U	< 1e-05 s⁻¹	< 1e-05 s⁻¹	< 1e-05 s⁻¹	–	< 1e-05 s⁻¹
C34G G40U G41A C58U	–	< 1e-05 s⁻¹	–	< 1e-05 s⁻¹	–
G7C A12G A33U G51U	–	–	–	< 1e-05 s⁻¹	–
G38U G41C G59C	–	< 1e-05 s⁻¹	–	< 1e-05 s⁻¹	–
G9A U65G C71G	–	< 1e-05 s⁻¹	–	< 1e-05 s⁻¹	< 1e-05 s⁻¹
A15U A42U G51A C67U	–	< 1e-05 s⁻¹	< 1e-05 s⁻¹	< 1e-05 s⁻¹	–
C50G A53G C61U	–	0.000248 ± 8.1e-05 s⁻¹	9.79e-05 ± 2.5e-05 s⁻¹	0.000208 ± 7.8e-05 s⁻¹	0.000398 ± 9.7e-05 s⁻¹
A14G C16U U46C	–	–	–	0.000248 ± 7.7e-05 s⁻¹	–
A64G U65A C68G	< 1e-05 s⁻¹	–	–	–	–
U30C A36G U57C	–	< 1e-05 s⁻¹	–	< 1e-05 s⁻¹	< 1e-05 s⁻¹
U31C A52U C71G	–	–	–	< 1e-05 s⁻¹	–
G7U C10A A12U A36G C50G	0.000144 ± 2.8e-05 s⁻¹	0.0003 ± 0.0001 s⁻¹	0.000157 ± 3.1e-05 s⁻¹	–	–
C8G G63C	< 1e-05 s⁻¹	< 1e-05 s⁻¹	–	< 1e-05 s⁻¹	< 1e-05 s⁻¹
G32U G51U	–	< 1e-05 s⁻¹	–	< 1e-05 s⁻¹	–
G35C U46C C50A	–	–	< 1e-05 s⁻¹	< 1e-05 s⁻¹	–
A36C G51A	< 1e-05 s⁻¹	–	< 1e-05 s⁻¹	–	–
A14C C34A A48C C61G	–	–	< 1e-05 s⁻¹	< 1e-05 s⁻¹	< 1e-05 s⁻¹
C11G U31C C71U	–	–	–	< 1e-05 s⁻¹	< 1e-05 s⁻¹
C10G U47G	< 1e-05 s⁻¹	–	< 1e-05 s⁻¹	–	–
C10U G43U C70A	< 1e-05 s⁻¹	–	–	–	–
